The source of these data is the supplement of paper PMC9112550, “Optimization of the antimicrobial peptide Bac7 by deep mutational scanning” (BMC Biology, 2022).
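Also: peptides expressed intracellularly from a pBAD plasmid library in pooled LB shake-flask culture, induced with 0.3% L-arabinose, DNA abundance read by NGS, three biological replicates, DESeq2 with apeglm shrinkage.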

This series deals with Escherichia coli TOP10. The series can be described thus: shrunken log2 fold change of peptide-encoding DNA abundance (4.5 h post-induction vs induction); higher = less antimicrobial activity (less host growth inhibition). The conditions noted are these: time post-induction: 4.5 h; library: site-saturation at positions 5, 18, 19, 20.
Take RRIRHRPPRLPRPRPRPVIPPRP: the “shrunken log2 fold change” value was -0.0562.

Consider RRIRVRPPRLPRPRPRPVEGPRP, for which the “shrunken log2 fold change” value was 0.112.

Consider RRIRFRPPRLPRPRPRPEFPPRP, for which the “shrunken log2 fold change” value is -0.132.

For the sequence RRIRLRPPRLPRPRPRPDMHPRP, the “shrunken log2 fold change” value is 3.46.

With RRIRLRPPRLPRPRPRPTKPPRP, the “shrunken log2 fold change” value was determined as 0.0884.

With RRIRDRPPRLPRPRPRPLNHPRP, the “shrunken log2 fold change” value is -0.154.

For RRIRQRPPRLPRPRPRPADTPRP, the “shrunken log2 fold change” value was -0.128.

RRIRRRPPRLPRPRPRPGVMPRP: the “shrunken log2 fold change” value came to 0.245.

On to RRIRMRPPRLPRPRPRPPSRPRP, for which the “shrunken log2 fold change” value was 1.01.

Consider RRIRERPPRLPRPRPRPCPPPRP, for which the “shrunken log2 fold change” value is -0.0496.

On to RRIRQRPPRLPRPRPRPWWVPRP, for which the “shrunken log2 fold change” value is -0.0321.

For RRIRCRPPRLPRPRPRPPIWPRP, the “shrunken log2 fold change” value was determined as 0.134.

With RRIRNRPPRLPRPRPRPPQQPRP, the “shrunken log2 fold change” value is 0.294.

Turning to RRIRSRPPRLPRPRPRPERHPRP, the “shrunken log2 fold change” value stood at 0.0386.

In the case of RRIRHRPPRLPRPRPRPDPNPRP, the “shrunken log2 fold change” value is -0.0239.

As for RRIRHRPPRLPRPRPRPQTAPRP, the “shrunken log2 fold change” value was 0.00296.

RRIRNRPPRLPRPRPRPWKLPRP: the “shrunken log2 fold change” value was -0.0134.

With RRIRYRPPRLPRPRPRPMIRPRP, the “shrunken log2 fold change” value was -0.0021.

For the sequence RRIRQRPPRLPRPRPRPKKTPRP, the “shrunken log2 fold change” value was -0.0104.

Consider RRIRMRPPRLPRPRPRPEEQPRP, for which the “shrunken log2 fold change” value is -0.00184.

With RRIRLRPPRLPRPRPRPMCYPRP, the “shrunken log2 fold change” value is -0.294.

With RRIRSRPPRLPRPRPRPKWQPRP, the “shrunken log2 fold change” value came out at 0.255.

Take RRIRTRPPRLPRPRPRPNMYPRP: the “shrunken log2 fold change” value was -0.637.

Turning to RRIRGRPPRLPRPRPRPLIAPRP, the “shrunken log2 fold change” value worked out at 1.27.

Regarding RRIRARPPRLPRPRPRPGPVPRP, the “shrunken log2 fold change” value is 0.611.

Consider RRIRARPPRLPRPRPRPKEQPRP, for which the “shrunken log2 fold change” value was -0.111.

Take RRIRFRPPRLPRPRPRPCTVPRP: the “shrunken log2 fold change” value was -0.318.

RRIRLRPPRLPRPRPRPGCRPRP: the “shrunken log2 fold change” value worked out at 0.157.

Regarding RRIRCRPPRLPRPRPRPKMHPRP, the “shrunken log2 fold change” value is -0.121.

Take RRIRSRPPRLPRPRPRPFETPRP: the “shrunken log2 fold change” value is -0.101.

On to RRIRSRPPRLPRPRPRPKHWPRP, for which the “shrunken log2 fold change” value was determined as 0.311.

For RRIRYRPPRLPRPRPRPSFGPRP, the “shrunken log2 fold change” value is -0.522.

For RRIRNRPPRLPRPRPRPVDAPRP, the “shrunken log2 fold change” value was 0.154.

For the sequence RRIRQRPPRLPRPRPRPYFLPRP, the “shrunken log2 fold change” value is -0.923.

For RRIRPRPPRLPRPRPRPPVSPRP, the “shrunken log2 fold change” value was 0.0379.

On to RRIRCRPPRLPRPRPRPTLRPRP, for which the “shrunken log2 fold change” value is 0.15.

For the sequence RRIRVRPPRLPRPRPRPSIVPRP, the “shrunken log2 fold change” value is -0.364.

As to RRIRIRPPRLPRPRPRPISCPRP, the “shrunken log2 fold change” value was -0.0154.

As to RRIRIRPPRLPRPRPRPDNAPRP, the “shrunken log2 fold change” value is -0.717.

In the case of RRIRNRPPRLPRPRPRPKRWPRP, the “shrunken log2 fold change” value came out at 0.0633.

As for RRIRARPPRLPRPRPRPIAQPRP, the “shrunken log2 fold change” value came to 0.459.

On to RRIRERPPRLPRPRPRPYRHPRP, for which the “shrunken log2 fold change” value is -0.0262.

As to RRIRKRPPRLPRPRPRPHFTPRP, the “shrunken log2 fold change” value was -0.0881.

Turning to RRIRERPPRLPRPRPRPPRNPRP, the “shrunken log2 fold change” value was found to be 0.0296.

In the case of RRIRPRPPRLPRPRPRPVKDPRP, the “shrunken log2 fold change” value was -0.0309.

With RRIRRRPPRLPRPRPRPVHRPRP, the “shrunken log2 fold change” value was -0.0888.

Consider RRIRYRPPRLPRPRPRPYGMPRP, for which the “shrunken log2 fold change” value is -0.438.

Take RRIRQRPPRLPRPRPRPMVIPRP: the “shrunken log2 fold change” value was -0.105.

For the sequence RRIRIRPPRLPRPRPRPGVKPRP, the “shrunken log2 fold change” value is -0.279.

As for RRIRDRPPRLPRPRPRPCFIPRP, the “shrunken log2 fold change” value is -0.13.

RRIRMRPPRLPRPRPRPVVAPRP: the “shrunken log2 fold change” value is 0.533.

As to RRIRKRPPRLPRPRPRPMFGPRP, the “shrunken log2 fold change” value was found to be 0.112.

For the sequence RRIRHRPPRLPRPRPRPDLFPRP, the “shrunken log2 fold change” value was -0.00544.

For RRIRRRPPRLPRPRPRPWLPPRP, the “shrunken log2 fold change” value came to 0.221.

With RRIRVRPPRLPRPRPRPWKFPRP, the “shrunken log2 fold change” value is -0.00968.

For the sequence RRIRIRPPRLPRPRPRPNKDPRP, the “shrunken log2 fold change” value is -0.818.

Turning to RRIRFRPPRLPRPRPRPHDMPRP, the “shrunken log2 fold change” value was -0.292.

As for RRIRVRPPRLPRPRPRPIQVPRP, the “shrunken log2 fold change” value amounted to 0.0304.

In the case of RRIRDRPPRLPRPRPRPYRMPRP, the “shrunken log2 fold change” value is -0.0515.

For RRIRVRPPRLPRPRPRPWFEPRP, the “shrunken log2 fold change” value is -0.313.

In the case of RRIRSRPPRLPRPRPRPMHGPRP, the “shrunken log2 fold change” value came to 0.102.

In the case of RRIRPRPPRLPRPRPRPPKIPRP, the “shrunken log2 fold change” value came out at 0.0961.

As for RRIRCRPPRLPRPRPRPYQQPRP, the “shrunken log2 fold change” value is -0.12.

Take RRIRYRPPRLPRPRPRPCTRPRP: the “shrunken log2 fold change” value is -0.111.

RRIRCRPPRLPRPRPRPMVFPRP: the “shrunken log2 fold change” value is -0.0164.

Consider RRIRARPPRLPRPRPRPVKSPRP, for which the “shrunken log2 fold change” value came out at 0.19.

Regarding RRIRWRPPRLPRPRPRPDKRPRP, the “shrunken log2 fold change” value is -0.00125.

For RRIRKRPPRLPRPRPRPGPPPRP, the “shrunken log2 fold change” value was found to be 0.922.

RRIRIRPPRLPRPRPRPPYFPRP: the “shrunken log2 fold change” value was -0.25.

Consider RRIRLRPPRLPRPRPRPDIDPRP, for which the “shrunken log2 fold change” value was determined as 0.0249.

In the case of RRIRRRPPRLPRPRPRPFVRPRP, the “shrunken log2 fold change” value is -0.174.

Take RRIRGRPPRLPRPRPRPSTTPRP: the “shrunken log2 fold change” value worked out at 0.875.

For the sequence RRIRQRPPRLPRPRPRPYWWPRP, the “shrunken log2 fold change” value was -0.143.

Turning to RRIRFRPPRLPRPRPRPNAWPRP, the “shrunken log2 fold change” value was -0.171.

Consider RRIRYRPPRLPRPRPRPWTWPRP, for which the “shrunken log2 fold change” value is -0.106.

Turning to RRIRNRPPRLPRPRPRPGITPRP, the “shrunken log2 fold change” value was -0.326.

Take RRIRYRPPRLPRPRPRPMHLPRP: the “shrunken log2 fold change” value is -0.00136.

Take RRIRCRPPRLPRPRPRPIKSPRP: the “shrunken log2 fold change” value was -0.185.

Turning to RRIRHRPPRLPRPRPRPCMCPRP, the “shrunken log2 fold change” value was -0.245.

In the case of RRIRPRPPRLPRPRPRPEKNPRP, the “shrunken log2 fold change” value came out at 0.101.

For RRIRKRPPRLPRPRPRPRNNPRP, the “shrunken log2 fold change” value was found to be 0.198.

RRIRQRPPRLPRPRPRPADIPRP: the “shrunken log2 fold change” value is -0.01.

Regarding RRIRIRPPRLPRPRPRPNYMPRP, the “shrunken log2 fold change” value was -0.177.

Regarding RRIRKRPPRLPRPRPRPQWAPRP, the “shrunken log2 fold change” value was -0.0368.

Turning to RRIRWRPPRLPRPRPRPTYVPRP, the “shrunken log2 fold change” value turned out to be 0.0417.

Take RRIRARPPRLPRPRPRPWLHPRP: the “shrunken log2 fold change” value amounted to 0.144.

As for RRIRHRPPRLPRPRPRPMLDPRP, the “shrunken log2 fold change” value worked out at 0.0917.

Take RRIRIRPPRLPRPRPRPGHPPRP: the “shrunken log2 fold change” value was -0.212.

Take RRIRYRPPRLPRPRPRPSGGPRP: the “shrunken log2 fold change” value is -0.519.

For the sequence RRIRGRPPRLPRPRPRPERFPRP, the “shrunken log2 fold change” value is 0.969.

For RRIRCRPPRLPRPRPRPMFFPRP, the “shrunken log2 fold change” value is -0.399.

On to RRIRNRPPRLPRPRPRPHCAPRP, for which the “shrunken log2 fold change” value was determined as 0.0341.

On to RRIRGRPPRLPRPRPRPMEAPRP, for which the “shrunken log2 fold change” value is 1.27.

Take RRIRARPPRLPRPRPRPAVAPRP: the “shrunken log2 fold change” value worked out at 0.728.

Consider RRIRYRPPRLPRPRPRPMWAPRP, for which the “shrunken log2 fold change” value is -0.0298.

On to RRIRWRPPRLPRPRPRPGTGPRP, for which the “shrunken log2 fold change” value worked out at 0.188.

Regarding RRIRGRPPRLPRPRPRPKYQPRP, the “shrunken log2 fold change” value was determined as 0.159.

Take RRIRARPPRLPRPRPRPKGTPRP: the “shrunken log2 fold change” value was 0.233.

Consider RRIRNRPPRLPRPRPRPKQVPRP, for which the “shrunken log2 fold change” value is -0.173.

With RRIRPRPPRLPRPRPRPVWVPRP, the “shrunken log2 fold change” value came out at 0.0215.

Regarding RRIRKRPPRLPRPRPRPVFVPRP, the “shrunken log2 fold change” value was determined as 0.141.

Take RRIRTRPPRLPRPRPRPLLSPRP: the “shrunken log2 fold change” value is 0.0198.

For RRIRVRPPRLPRPRPRPGIVPRP, the “shrunken log2 fold change” value is 0.106.

As for RRIRWRPPRLPRPRPRPFYPPRP, the “shrunken log2 fold change” value is -0.239.

As for RRIRQRPPRLPRPRPRPAVHPRP, the “shrunken log2 fold change” value is -0.0227.

With RRIRKRPPRLPRPRPRPNTYPRP, the “shrunken log2 fold change” value worked out at 0.0436.

Turning to RRIRGRPPRLPRPRPRPDFSPRP, the “shrunken log2 fold change” value came out at 0.313.

For RRIRSRPPRLPRPRPRPDFGPRP, the “shrunken log2 fold change” value was 0.0573.

Regarding RRIRDRPPRLPRPRPRPMYLPRP, the “shrunken log2 fold change” value is -0.239.

With RRIRRRPPRLPRPRPRPVSLPRP, the “shrunken log2 fold change” value is -0.15.

For the sequence RRIRPRPPRLPRPRPRPECDPRP, the “shrunken log2 fold change” value is 0.392.

As for RRIRKRPPRLPRPRPRPQHSPRP, the “shrunken log2 fold change” value was -0.288.

With RRIRARPPRLPRPRPRPICTPRP, the “shrunken log2 fold change” value stood at 0.197.

With RRIRPRPPRLPRPRPRPPRDPRP, the “shrunken log2 fold change” value turned out to be 0.521.

In the case of RRIRCRPPRLPRPRPRPGYLPRP, the “shrunken log2 fold change” value is -0.561.

On to RRIRSRPPRLPRPRPRPGFYPRP, for which the “shrunken log2 fold change” value is -0.312.

For RRIRCRPPRLPRPRPRPFMWPRP, the “shrunken log2 fold change” value is -0.165.

In the case of RRIRHRPPRLPRPRPRPTFTPRP, the “shrunken log2 fold change” value was -0.265.

Consider RRIRHRPPRLPRPRPRPQGIPRP, for which the “shrunken log2 fold change” value turned out to be 0.0372.

On to RRIRRRPPRLPRPRPRPPYFPRP, for which the “shrunken log2 fold change” value was determined as 0.442.

On to RRIRWRPPRLPRPRPRPFTTPRP, for which the “shrunken log2 fold change” value is -0.0833.

RRIRSRPPRLPRPRPRPVRDPRP: the “shrunken log2 fold change” value was found to be 0.369.

For RRIRKRPPRLPRPRPRPFWNPRP, the “shrunken log2 fold change” value is -0.0468.

On to RRIRVRPPRLPRPRPRPWVWPRP, for which the “shrunken log2 fold change” value came out at 0.292.

RRIRYRPPRLPRPRPRPSNFPRP: the “shrunken log2 fold change” value was -0.368.
